In the data set the target is T1, ParB (Myxococcus xanthus DK1050, UniProt Q1CVJ4 1-296).
T1 sequence: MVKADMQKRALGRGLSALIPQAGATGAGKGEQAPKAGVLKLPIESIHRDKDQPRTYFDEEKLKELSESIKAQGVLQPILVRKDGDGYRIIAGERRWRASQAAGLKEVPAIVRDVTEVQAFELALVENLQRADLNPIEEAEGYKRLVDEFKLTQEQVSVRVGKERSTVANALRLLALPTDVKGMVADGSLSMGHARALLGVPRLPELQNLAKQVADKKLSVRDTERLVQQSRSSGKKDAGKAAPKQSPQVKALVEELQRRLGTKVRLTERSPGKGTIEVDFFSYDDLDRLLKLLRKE
The experiment in a line: EMSA (polyacrylamide); single retarded band up to highest ParB; 40 mM Na-phosphate pH 8, 20 mM NaCl, 7% glycerol, 20 ug/ml BSA, 100 ug/ml sheared salmon sperm DNA, 30 C (30 min agarose, 1 h polyacrylamide); gels run at 4 C. The conditions noted are these: protein: recombinant; tags: intein-chitin tag (pTYB12) removed by on-column DTT cleavage; chain copies: 2; label: 32P 5' end; blunt. (In general: A gel shift assay detects complexes by their altered migration in electrophoresis.)

B1: parS 50 bp consensus (dsDNA)
DNA 1: ACTCACTCATGGCCTCCGTGTTCCACGTGGAACGAAGGATGACTCGAGCA
DNA 2: TGCTCGAGTCATCCTTCGTTCCACGTGGAACACGGAGGCCATGAGTGAGT
For the molecule B1, the binding result is listed as “binds”.

Source of the values: publication PMC3899335, “ParABS System in Chromosome Partitioning in the Bacterium Myxococcus xanthus”.
